Numbering of substitutions follows the chain as printed.
B1: 36E5 (antibody, V domains shown)
VH: EVNLVESGGGLVKPGGSLKVSCAASGFTFSSYAMSWVRQTPEKRLEWVASISSGGTTYYPDSVKGRFTISRDNARNILYLQMSSLRSEDTAMYYCARVGGYYDSMDYWGQGISVTDSS
VL: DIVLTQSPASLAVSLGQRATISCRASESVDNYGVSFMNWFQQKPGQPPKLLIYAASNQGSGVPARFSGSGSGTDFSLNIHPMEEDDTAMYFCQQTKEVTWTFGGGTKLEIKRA
notes: Parental rodent anti-human GITR monoclonal antibody from a hybridoma; kappa VL; also called 36E5.A5
B2: 61F6 (antibody, V domains shown)
VH: QVQLQQSGAELARPGASVKMSCKASGYTFTSYTMHWVKQRPGQGLEWIGYINPRSVYTNYNQKFKDKATLTADKSSSTAYMQLSSLTSEDSAVYYCARLGGYYDTMDYWGQGTSVTVSS
VL: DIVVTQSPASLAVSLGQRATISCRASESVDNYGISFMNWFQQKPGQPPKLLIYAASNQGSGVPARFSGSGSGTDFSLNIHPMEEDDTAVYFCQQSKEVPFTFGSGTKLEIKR
notes: Parental rodent anti-human GITR monoclonal antibody from a hybridoma; kappa VL; also called 61F6.B9; hybridoma PTA-9893
B3: 3D6 (antibody, V domains shown)
VH: EVQLVESGGGLVQPGRSLKLSCAASGFTFSDYYMAWVRQAPTKGLEWVAYIHANGGSTYYRDSVRGRFSISRDNGKSTLYLQMDSLRSEDTATYYCTTGSFMYAADYYIMDAWGQGASVTVSS
VL: DVVMTQTPVSLSVSLGNQASISCRSSQSLLHSDGNTFLSWYFQKPGQSPQLLIYLASNRFSGVSNRFSGSGSGTDFTLKISRVEPEDLGVYYCFQHTHLPLTFGSGTKLEIKR
notes: Parental rodent anti-human GITR monoclonal antibody from a hybridoma; kappa VL; also called JL5.3D6; hybridoma PTA-9889
B4: 61G6 (antibody, V domains shown)
VH: DVQLQESGPGLVKPSQSLSLTCTVTGYSITSDYAWNWIRQFPGNKLEWMGYISYSGSTRYNPSLKSRISITRDTSKNQFFLQLNSVTSEDTATYYCARQLGLRFFDYWGQGTTLTVSS
VL: QIVLTQSPALMSASPGEKVTMTCSANSTVNYMYWYQQKPRSSPKPCIYLTSNLASGVPARFSGSGSGTSYSLTISSMEAEDAATYYCQQWNSNPPTFGAGTKLELRR
notes: Parental rodent anti-human GITR monoclonal antibody from a hybridoma; kappa VL; also called 61G6.B6; hybridoma PTA-9891
B5: 6H6 (antibody, V domains shown)
VH: QVQLQQSGAELMKPGASVKISCKATGYTFSRYWIEWIKQRPGHGLEWIGEILPGSGSSNYNEKFKDKATFTADTSSNTAYMQFSSLTSEDSAVYYCARKVYYYAMDFWGQGTSVTVSS
VL: QIVLTQSPAIMSVSLGERVTVTCTASSSVSSSYFHWYQQKPGSSPKLWIYSTSNLASGVPARFSGSGSGTSYSLTISTMEAEDAATYYCHQYHRSPRTFGGGTKLEIKR
notes: Parental rodent anti-human GITR monoclonal antibody from a hybridoma; kappa VL; also called 6H6.C3; hybridoma PTA-9892
B6: 35D8 (antibody, V domains shown)
VH: EVQLQESGPSLVKPSQTLSLTCSVTGDSITSGYWNWIRKFPGNKLEYMGYISYSGSTYYNPSLRGRISITRDTSKSQYYLQLSSVTTEDTATYYCSRRHLGSGYGWFAYWGQGTLVTVSA
VL: DIVMTQSHKFMSTSVGDRVSITCKASQDVNTAVAWYQQKPGQSPKLLIYWASTRHTGVPDRFTGSGSGTDYALTINSVQAEDLALYYCQQHSYTPPWTFGGGTKLEIRR
notes: Parental rodent anti-human GITR monoclonal antibody from a hybridoma; kappa VL; also called 35D8.B10
B7: 49A1 (antibody, V domains shown)
VH: B6 VH with L45F, Y50F, S56N, G65S, S76N, Y79F, Q81H, S83N, G101I
VL: B6 VL with D1V, V15I, S20N, N30I, T31S, Y71F, A72T, L83R, K104N, R108K
notes: Parental rodent anti-human GITR monoclonal antibody from a hybridoma; kappa VL; also called 49A1.B1

Biological target: T1, human GITR on naïve CD4+ T cells (human, UniProt Q9Y5U5 26-241)
T1 sequence: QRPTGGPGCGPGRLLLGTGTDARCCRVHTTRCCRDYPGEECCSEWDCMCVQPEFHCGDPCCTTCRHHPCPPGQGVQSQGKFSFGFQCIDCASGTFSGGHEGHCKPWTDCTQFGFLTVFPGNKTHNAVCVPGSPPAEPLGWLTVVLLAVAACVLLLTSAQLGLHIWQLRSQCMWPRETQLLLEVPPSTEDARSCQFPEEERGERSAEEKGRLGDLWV
Assay: cell-based or functional assay

| proliferation of naïve CD4+ T cells, mean, at 0.04 ng/mL Ab | proliferation of naïve CD4+ T cells, mean, at 0.15 ng/mL Ab | proliferation of naïve CD4+ T cells, mean, at 0.61 ng/mL Ab | proliferation of naïve CD4+ T cells, mean, at 2.4 ng/mL Ab | proliferation of naïve CD4+ T cells, mean, at 9.8 ng/mL Ab | proliferation of naïve CD4+ T cells, mean, at 39.1 ng/mL Ab | proliferation of naïve CD4+ T cells, mean, at 156 ng/mL Ab | proliferation of naïve CD4+ T cells, mean, at 625 ng/mL Ab | proliferation of naïve CD4+ T cells, mean, at 2500 ng/mL Ab | proliferation of naïve CD4+ T cells, mean, at 10000 ng/mL Ab | Binder |
| --- | --- | --- | --- | --- | --- | --- | --- | --- | --- | --- |
| 27500 | 26200 | 31000 | 47500 | 78700 | 90300 | 97100 | 82100 | 71800 | 83800 | B1 |
| 34900 | 32000 | 37600 | 61300 | 96300 | 107000 | 108000 | 105000 | 96300 | 93400 | B2 |
| 33300 | 30800 | 33800 | 43100 | 79300 | 124000 | 109000 | 111000 | 109000 | 96200 | B3 |
| 31000 | 35600 | 32600 | 28900 | 34300 | 40100 | 45600 | 75100 | 116000 | 135000 | B4 |
| 38500 | 33400 | 30200 | 35600 | 60000 | 104000 | 123000 | 120000 | 107000 | 91900 | B5 |

Biological target: T2, hGITR-hIgG (human, UniProt Q9Y5U5 26-161, limits assumed)
T2 construct: not shown: human IgG part of the fusion
T2 sequence: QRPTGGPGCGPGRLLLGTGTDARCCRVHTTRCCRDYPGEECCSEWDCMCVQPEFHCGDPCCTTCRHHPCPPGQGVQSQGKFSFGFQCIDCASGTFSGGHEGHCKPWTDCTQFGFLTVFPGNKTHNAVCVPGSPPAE
Assay: BIAcore SPR; hGITR-hIgG capture antigen, mAb analyte
Protocol: (§1) BIAcore determinations are performed essentially as described at Example 4 of co-pending, commonly assigned U.S. patent application Ser. No. 11/511,635 (filed 29 Aug. 2006). Briefly, binding partners are immobilized on a BIAcore CM5 sensor chip using standard amine-coupling procedure. Kinetic constants for the various interactions are determined using BIAevaluation software 3.1. The Kd is determined using the calculated dissociation and association rate constants.

| koff [s⁻¹] | kon [M⁻¹ s⁻¹] | Binder |
| --- | --- | --- |
| 0.000177 | 864000 | B1 |
| 0.0135 | 1.11e+06 | B2 |
| 0.0002 | 801000 | B6 |
| 0.000318 | 478000 | B7 |
| 0.000766 | 95000 | B3 |
| 6.9e-05 | 4000 | B4 |
| 0.000919 | 610000 | B5 |

Biological target: T2, hGITR-hIgG
Assay: BIAcore SPR; hGITR-hIgG capture antigen, mAb analyte; apparent Kd
Protocol: as §1

| Kd [nM] | Binder |
| --- | --- |
| 0.205 | B1 |
| 12.2 | B2 |
| 0.25 | B6 |
| 0.665 | B7 |
| 8.05 | B3 |
| 15.6 | B4 |
| 1.51 | B5 |

Biological target: T1, human GITR on naïve CD4+ T cells
Assay: cell-based or functional assay
Remark: another data set of the same source

| proliferation of naïve CD4+ T cells, mean, at 0.4 ng/mL Ab | proliferation of naïve CD4+ T cells, mean, at 0.9 ng/mL Ab | proliferation of naïve CD4+ T cells, mean, at 2.2 ng/mL Ab | proliferation of naïve CD4+ T cells, mean, at 5.2 ng/mL Ab | proliferation of naïve CD4+ T cells, mean, at 12.6 ng/mL Ab | proliferation of naïve CD4+ T cells, mean, at 30.1 ng/mL Ab | proliferation of naïve CD4+ T cells, mean, at 72.3 ng/mL Ab | proliferation of naïve CD4+ T cells, mean, at 173.6 ng/mL Ab | proliferation of naïve CD4+ T cells, mean, at 416.7 ng/mL Ab | proliferation of naïve CD4+ T cells, mean, at 1000.0 ng/mL Ab | Binder |
| --- | --- | --- | --- | --- | --- | --- | --- | --- | --- | --- |
| 52300 | 50700 | 59800 | 71400 | 86200 | 95300 | 92400 | 96200 | 89800 | 97300 | B6 |
| 54300 | 54100 | 61100 | 72200 | 86000 | 95500 | 96100 | 93600 | 86300 | 78000 | B7 |

Reference: US20120189639A1 (Merck Sharp & Dohme, published 2012)
